Assay results as given in US20230330253A1 (LANOVA MEDICINES, published 2023).

B1: 120B7B2 HC G57D&S104A-LC S32A&G97A (BG2001-E) (humanized, PTM de-risked, No. 7) (antibody, V domains shown)
VH: QVQLVQSGAEVKKPGASVKVSCKASGYTFTGYIIQWVRQAPGQRLEWMGFINPYNDDTKYNEQFKGRVTITRDTSASTAYMELSSLRSEDTAVYYCARAYFGNAFAYWGQGTLVTVSS
VL: DIVMTQSPDSLAVSLGERATINCKSSQSLLNAGNQKNYLTWYQQKPGQPPKLLIYWASTRESGVPDRFSGSGSGTDFTLTISSLQAEDVAVYYCQNAYYFPFTFGGGTKLEIK
B2: 175D10 (IMAB362; claudiximab) (antibody, V domains shown)
VH: QVQLQQPGAELVRPGASVKLSCKASGYTFTSYWINWVKQRPGQGLEWIGNIYPSDSYTNYNQKFKDKATLTVDKSSSTAYMQLSSPTSEDSAVYYCTRSWRGNSFDYWGQGTTLTVSS
VL: DIVMTQSPSSLTVTAGEKVTMSCKSSQSLLNSGNQKNYLTWYQQKPGQPPKLLIYWASTRESGVPDRFTGSGSGTDFTLTISSVQAEDLAVYYCQNDYSYPFTFGSGTKLEIK

Key:
Assay in all cases: cell-based or functional assay
[1] = target: human claudin 18.2 (CLDN18.2) (human)
[2] = target: human claudin 18.2 (CLDN18.2) (human); remark: listed apart in the source
[3] = target: human claudin 18.2 (CLDN18.2) (human); remark: listed apart in the source

Row | Binder | Fluorescence, pHAb internalization on MKN45-CLDN18.2 cells, 20 nM antibody, normalized by DAR [1] | Fluorescence, pHAb internalization on MKN45-CLDN18.2 cells, 100 nM antibody, normalized by DAR [1] | EC50, ADCC Reporter Bioassay (luciferase) [2] [pM] | EC50, ADCC Reporter Bioassay (luciferase, Jurkat FcγRIIIa V158/NFAT effector cells) [3] [pM]
1 | B1 | 19200 | 31300 | 114 | 
2 | B2 | 7950 | 18900 | 158 | 458
